Where two headings read alike, the source gives them in different places.
Tests used:
db/db mice [1] = assay: Oral glucose tolerance test (OGTT) in db/db mice after 21 days; format: in vivo; details: after 21 days of treatment, 2 g/kg oral glucose, vs vehicle treated obese control
Protocol: (§1) Female db/db mice (BKS.Cg-m+/+Leprdb/J, age of 6 weeks) were treated with vehicle (PBS), 0.05 mg·kg^−1·day^−1 AVE0010, 0.75 mg·kg^−1·day^−1 recombinant human FGF-21 (SEQ ID NO: 2) or a combined dose of FGF-21 (SEQ ID NO: 2) and AVE0010 (0.75+0.05 mg·kg^−1·day^−1) subcutaneously once daily. Mice were fed ad libitum. Before the first treatment, after one week and 4 weeks blood glucose and HbA1c were measured under fed conditions. After 21 days of treatment an oral glucose tolerance test (OGTT) was initiated. Fasted mice were orally challenged with 2 g·kg^−1 glucose solution and blood glucose was measured at indicated time points.

db/db mice [2] = assay: Fed blood glucose in db/db mice (age of 6 weeks); format: in vivo; details: fed conditions, up to 4 weeks, AVE0010 0.05, FGF-21 0.75 mg/kg/day s.c. or combined
Protocol: as §1

[3] = tested on: ob/ob mice, db/db mice and obese ZDF rats; details: cited from earlier work
diabetic rhesus monkeys = details: 6 weeks; cited from earlier work
mouse 3T3-L1 adipocytes = details: in the presence and absence of insulin; cited from earlier work
[4] = ob/ob and db/db mice and 8 week old ZDF rats, dose dependent (WO03/011213)
[5] = ob/ob, db/db mice and obese ZDF rats (Kharitonenkov et al. 2005)

B1: FGF-21: recombinant human FGF-21 (SEQ ID NO: 2): deletion of amino acids 1-28 of human FGF-21 and additional N-terminal glycine (protein)
chain: GHPIPDSSPLLQFGGQVRQRYLYTDDAQQTEAHLEIREDGTVGGAADQSPESLLQLKALKPGVIQILGVKTSRFLCQRPDGALYGSLHFDPEACSFRELLLEDGYNVYQSEAHGLPLHLPGNKSPHRDPAPRGPARFLPLPGLPPAPPEPPGILAPQPPDVGSSDPLSMVGPSQGRSPSYAS
modifications: G linked to fragment of human FGF21 from H29 to S209
**Q.** Which “glucose tolerance (OGTT)” value (db/db mice [1]) does the source give for B1 here?
**A.** small improvement

**Q.** What about the blood glucose (db/db mice [2]) of the same molecule?
**A.** inhibition of blood glucose increase

**Q.** What about the “mitogenicity, hypoglycemia, or weight gain” value ([3]; any dose tested, diabetic or healthy animals) of the same molecule?
**A.** did not induce

**Q.** What about the “food intake or body weight/composition” value ([3]; diabetic or lean mice and rats, 2 weeks of administration) of the same molecule?
**A.** did not affect

**Q.** What about the “fed and fasting blood glucose” value [3, 4] of the same molecule?
**A.** decrease

**Q.** What about the glucagon levels [3, 4] of the same molecule?
**A.** decrease

**Q.** And the triglycerides [3, 4]?
**A.** decrease

**Q.** And the blood glucose [3, 5]?
**A.** significantly lowered

**Q.** What about the fasting insulin levels [3, 5] of the same molecule?
**A.** decreased

**Q.** And the “glucose clearance during an oral glucose tolerance test” value [3, 5]?
**A.** improved

**Q.** And the triglycerides [3, 5]?
**A.** significantly lowered

**Q.** What about the HDL-cholesterol (diabetic rhesus monkeys) of the same molecule?
**A.** increased

**Q.** What about the LDL-cholesterol (diabetic rhesus monkeys) of the same molecule?
**A.** significantly lowered

**Q.** What about the body weight (diabetic rhesus monkeys) of the same molecule?
**A.** slightly but significantly decreased

**Q.** And the fasting plasma glucose (diabetic rhesus monkeys)?
**A.** reduced

**Q.** And the fructosamine (diabetic rhesus monkeys)?
**A.** reduced

**Q.** And the glucagone levels (diabetic rhesus monkeys)?
**A.** reduced

**Q.** And the hypoglycemia (diabetic rhesus monkeys)?
**A.** not observed

**Q.** What about the insulin (diabetic rhesus monkeys) of the same molecule?
**A.** reduced

**Q.** And the triglyceride (diabetic rhesus monkeys)?
**A.** reduced

**Q.** What about the glucose uptake (mouse 3T3-L1 adipocytes) of the same molecule?
**A.** stimulate

— patent US20140142023A1, “Pharmaceutical Composition for Treating A Metabolic Syndrome” (SANOFI, priority 2011, published 2014)
